Experiment [1] deals with outer membrane protein C (OmpC) of S. Typhimurium DT7155 (S. Typhimurium DT7155). Nature of the experiment: control of competition in pull down assay; S. Tm. DT7155 wt cells pre-incubated with HGFP, then phage S16 added; value is remaining S16 adsorption.
In experiment [2] the target is T1, Phage S16 (whole phage particle) (Phage S16, UniProt M1EAS5 1-638; M1EBB2 1-249).
T1 construct: The whole virion stood in the assay; All other virion proteins are left out; also called bacteriophage S16; CBS130493
T1 sequence 1: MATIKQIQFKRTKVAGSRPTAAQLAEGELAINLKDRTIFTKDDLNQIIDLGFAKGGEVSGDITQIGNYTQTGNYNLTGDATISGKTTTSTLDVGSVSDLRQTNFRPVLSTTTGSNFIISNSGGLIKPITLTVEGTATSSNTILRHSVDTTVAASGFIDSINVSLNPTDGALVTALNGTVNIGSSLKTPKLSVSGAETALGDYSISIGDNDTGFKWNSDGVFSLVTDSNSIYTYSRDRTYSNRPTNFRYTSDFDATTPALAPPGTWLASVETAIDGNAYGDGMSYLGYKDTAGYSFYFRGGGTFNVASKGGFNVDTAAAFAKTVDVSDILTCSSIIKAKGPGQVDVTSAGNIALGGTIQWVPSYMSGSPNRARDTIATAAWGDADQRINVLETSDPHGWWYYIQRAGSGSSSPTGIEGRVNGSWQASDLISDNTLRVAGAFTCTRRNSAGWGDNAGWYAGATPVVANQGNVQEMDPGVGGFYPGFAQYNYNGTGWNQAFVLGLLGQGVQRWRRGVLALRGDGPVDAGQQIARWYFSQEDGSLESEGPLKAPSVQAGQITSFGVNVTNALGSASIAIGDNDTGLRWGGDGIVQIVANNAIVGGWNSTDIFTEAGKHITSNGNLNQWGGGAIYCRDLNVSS
T1 sequence 2: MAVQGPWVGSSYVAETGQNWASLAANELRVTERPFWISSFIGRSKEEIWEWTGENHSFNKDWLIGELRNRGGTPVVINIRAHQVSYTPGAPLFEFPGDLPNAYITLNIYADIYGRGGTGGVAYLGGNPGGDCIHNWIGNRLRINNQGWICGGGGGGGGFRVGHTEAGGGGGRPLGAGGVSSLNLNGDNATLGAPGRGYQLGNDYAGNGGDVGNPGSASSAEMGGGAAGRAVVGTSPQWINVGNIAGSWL
Put plainly: pull down assay (phage adsorption) on E. coli K-12 wt and E. coli K-12 ΔompC::ompC(K-12) cells.

As for HGFP (6xHis-tagged GFP alone, control), in experiment [1], the adsorption ratio of S16 after pre-incubation amounted to 93.8%.

B1: OmpC of E. coli K-12 (receptor)
chain: AEVYNKDGNKLDLYGKVDGLHYFSDNKDVDGDQTYMRLGFKGETQVTDQLTGYGQWEYQIQGNSAENENNSWTRVAFAGLKFQDVGSFDYGRNYGVVYDVTSWTDVLPEFGGDTYGSDNFMQQRGNGFATYRNTDFFGLVDGLNFAVQYQGKNGNPSGEGFTSGVTNNGRDALRQNGDGVGGSITYDYEGFGIGGAISSSKRTDAQNTAAYIGNGDRAETYTGGLKYDANNIYLAAQYTQTYNATRVGSLGWANKAQNFEAVAQYQFDFGLRPSLAYLQSKGKNLGRGYDDEDILKYVDVGATYYFNKNMSTYVDYKINLLDDNQFTRDAGINTDNIVALGLVYQF
notes: whole, on cells; Presented on E. coli K-12 wt cells, or expressed in trans from pBAD18 Amp^r in E. coli K-12 ΔompC; also called ompC(K-12)
For B1, the binding result in experiment [2] was “no binding”.

For the origin of these results see patent US20150125424A1 (MICREOS B V, published 2015).
